Results on ten molecules are retold here after US20150299265A1 (Molecular Partners, published 2015).

The target in test [1] is Human HER2 expressed on tumour cells (human, UniProt P04626 23-1255). The test can be described thus: cell-based or functional assay.
The target in test [2] is T1, Recombinant human HER2 ectodomain (human, UniProt P04626 23-652, biotinylated on primary amines (for SPR and crude extract ELISA)).
T1 construct: extracellular domain; also called ErbB2; ectodomain of human HER2; not shown: Flag tag
The test can be described thus: SPR (ProteOn); biotinylated human HER2 on neutravidin chip, monovalent DARPin injected. The method, then: Protein binding kinetics of interesting purified HER2-binding DARPins were assayed by Surface Plasmon Resonance (SPR) analysis with a ProteOn array system (BioRad) using a setup, where biotinylated human HER2 was immobilized via neutravidin and the interaction was measured by adding free monovalent DARPin. The determination of Kd values was performed according to standard procedures.
SPR was measured using a ProteOn instrument (BioRad) and measurement was performed according standard procedures known to the person skilled in the art. The running buffer was PBS, pH 7.4, containing 0.005% Tween 20®. Neutravidin was covalently immobilized on a GLC chip (BioRad) to a level of about 8000 resonance units (RU). Immobilization of HER2 on the neutravidin coated chip was then performed. […] The signals (i.e. resonance unit (RU) values) of an uncoated reference cell and a reference injection (i.e. injection of running buffer only) were subtracted from the RU traces obtained after injection of […] (double-referencing). From the SRP traces obtained from the on-rate and off-rate measurements the on- and off-rate of the corresponding DARPin HER2 interaction can be determined.
Dissociation constants (Kd) were calculated from the estimated on- and off-rates using standard procedures known to the person skilled in the art.

B1: DARPin #35 (designed binder)
chain: MRGSHHHHHHGSDLGIKLLFAAAKGQDDEVRILLAAGADVNAKDFEGYTPLHVAAYDGHLEIVEVLLKAGADVNAKDSQGRTPLHEAAYSGHLEIVEVLLKAGADVNAQDDAGETPADLAAAWGHEDIAEVLQKLGGGGSGGGGSRSDLGIKLLQAANLGQDDEVRILLATGADVNAKDSIGQTPLHWAARRGHLEIVEVLLKAGADVNAKDEYGVTPLHLAASLGHLEIVEVLLKAGADVNAQDESGETPADLAALHGHEDIAEVLQKLN
For the molecule B1, in test [1], the “% activity vs. DARPin # 41, BT474 cell proliferation” value is 63% and the “IC50 [nM], inhibition of BT474 cell proliferation (BrdU)” value worked out at 4.63 nM.

B2: DARPin #60 (designed binder)
chain: MRGSHHHHHHGSDLGVKLLWAAARGQDDEVRELLKAGADVNAKDFQGITPLHIAAQSGHLEIVEVLLKAGADVNAKDVTGDTPLHLAAQHGHLEIVEVLLKAGADVNAQDERGWTPADLAADWGHEDIAEVLQKLN
notes: monovalent
With B2, in test [2], the Kd is 0.0117 nM.

B3: DARPin #2 (designed binder)
chain: MRGSHHHHHHGSDLGVKLLWAAARGQDDEVRELLKAGADVNAKDFQGITPLHIAATSGHLEIVEVLLKAGADVNAKDITGETPLHHAADSGHLEIVEVLLKAGADVNAQDKAGVTPADLAAAWGHEDIAEVLQKLN
notes: monovalent
For the molecule B3, in test [2], the Kd was 0.875 nM.

B4: DARPin #4 (designed binder)
chain: MRGSHHHHHHGSDLGVKLLWAAARGQDDEVRELLKAGADVNAKDFQGITPLHIAAQSGHLEIVEVLLKAGADVNAKDVTGDTPLHLAAQHGHLEIVEVLLKAGADVNAQDERGKTPADLAADWGHEDIAEVLQKLN
notes: The list of constructs skips DARPin #4
For B4, the dissociation constant (Kd) in test [2] is 0.186 nM.

B5: DARPin #6 (designed binder)
chain: MRGSHHHHHHGSDLGVNLLWAATRGQDDEVRILLAAGADVNAKDFEGVTPLHLAAQWGHLEIVEVLLKAGADVNAKDVTGDTPLHLAAQHGHLEIVEVLLKAGADVNAQDERGWTPADLAADWGHEDIAEVLQKLN
notes: monovalent
Turning to B5, the Kd in test [2] came to 0.0292 nM.

B6: DARPin #3 (designed binder)
chain: MRGSHHHHHHGSDLGIKLLFAAAKSQDDEVRILLAAGADVNAKDFQSVTPLHIAAQSGHLEIVEVLLKAGADVNAKDVTGDTPLHLAAQHGHLEIVEVLLKAGADVNAQDERGWTPADLAADWGHEDIAEVLQKLN
notes: monovalent
For B6, the Kd in test [2] is 0.0131 nM.

B7: DARPin #54 (designed binder)
chain: MRGSHHHHHHGSDLGIKLLFAAAKGQDDEVRELLKAGADVNAKDFQGVTPLHIAAQSGHLEIVEVLLKAGADVNAKDVTGDTPLHLAAQHGHLEIVEVLLKAGADVNAQDERGWTPADLAADWGHEDIAEVLQKLN
notes: monovalent
For B7, the Kd in test [2] was determined as 0.00927 nM.

B8: DARPin #55 (designed binder)
chain: MRGSHHHHHHGSDLGIKLLIAASHGQDDEVRILLAAGANVNAKDFQGVTPLHIAAQSGHLEIVEVLLKAGADVNAKDVTGDTPLHLAAQHGHLEIVEVLLKAGADVNAQDERGWTPADLAADWGHEDIAEVLQKLN
notes: monovalent
B8: in test [2], the dissociation constant (Kd) came out at 0.0873 nM.

B9: DARPin #1 (designed binder)
chain: MRGSHHHHHHGSDLGVKLLWAAARGQDDEVRILLAAGADVNAKDFQGITPLHIAAQSGHLEIVEVLLKAGADVNAKDVTGDTPLHLAAQHGHLVIVEVLLKAGADVNAQDERGWTPADLAADWGHEDIAEVLQKLN
notes: monovalent
For the molecule B9, the Kd in test [2] is 0.0781 nM.

B10: DARPin #66 (designed binder)
chain: MRGSHHHHHHGSDLGAKLLSDLGVKLLWAAARGQDDEVRILLAAGADVNAKDFQGITPLHIAAQSGHLEIVEVLLKAGADVNAKDVTGDTPLHLAAQHGHLVIVEVLLKAGADVNAQDERGWTPADLAADWGHEDIAEVLQKAAGSDLGKKLLEAARAGQDDEVRILMANGADVNAKDEYGLTPLYLATAHGHLEIVEVLLKNGADVNAVDAIGFTPLHLAAFIGHLEIAEVLLKHGADVNAQDKFGKTAFDISIGNGNEDLAEILQKAA
B10: in test [1], the “% activity vs. DARPin # 41, BT474 cell proliferation” value came to 100% and the “IC50 [nM], inhibition of BT474 cell proliferation (BrdU)” value is 4.06 nM.

The Kd is the concentration at which binding is half-saturated.
